Assay results as given in patent US6355611B1, “Salt form of a conjugate useful in the treatment of prostate cancer” (Merck & Co., Inc., priority 1999, dated 2002).
Converted amounts (≈) assume the structure as drawn. Like-named read-outs stand apart in the source and are kept apart here. Starred links: 1 amine or outer side, 2 acyl side, 3 side chain; linkers in the order of their positions; H or OH if unused. Non-standard residues stand in square brackets, D forms with d. Residues, ends and D or L forms follow the SMILES beside them. ξ: configuration not given here. *: point of attachment. X1 = COc1cccc2c1C(=O)c1c(O)c3c(c(O)c1C2=O)C[C@@](O)(C(=O)CO)C[C@@H]3OC1CC(N*)C(O)C(C)O1; X2 = COc1cccc2c1C(=O)c1c(O)c3c(c(O)c1C2=O)CC(O)(C(=O)CO)CC3OC1CC(N*)C(O)C(C)O1; Glutaryl = O=C(CCCC(=O)[*:2])[*:1]; Hyp = O=C(O)[C@@H]1C[C@@H](O)CN1; Chg = N[C@H](C(=O)O)C1CCCCC1; ξChg = NC(C(=O)O)C1CCCCC1; ξHyp = O=C(O)C1CC(O)CN1; ξS = NC(CO)C(=O)O; ξA = CC(N)C(=O)O

Experiments:
Type in all cases: physicochemical
[1] = Thermal / storage stability; details: sodium salt compared with free acid
Method: (§1) An aqueous solution of the sodium salt of the instant invention has a pH of greater than 5.0. It has been discovered that the bond between the sugar moiety of doxorubicin and the tetracyclic doxorubicinone moiety is more readily cleaved at aqueous pH of less than 4.0. Therefore the sodium salt offers clear formulation advantages over the free acid, which has an unbuffered aqueous pH of less than 4.0.
In particular, the lyophilized formulation is prepared by the addition of a salt of a carboxylic acid to an aqueous solution of the previously described free acid compound 4. The amount of carboxylate salt that is added to the prelyophilization solution of the compound of formula 4 is from about 3 molar equivalents of base of trisodium citrate per mole of compound 4 to about 9 molar equivalents of base per mole of compound 4. Preferably, the amount of salt that is added is about 5 molar equivalents of base per mole of compound 4.

[2] = pH of aqueous solution; details: unbuffered aqueous solution
Text: as §1

[3] = Aggregate formation on dissolution in water (filtration through 0.22μ filter)
Text: (§2) It has further been discovered that the sodium salt of the Formula 5 offers advantages with respect to dissolution in water.

[4] = Solubility in water at room temperature
Text: as §2
It has further been discovered that the lyophilized formulation offers advantages with respect to dissolution in water.

SMILES	thermal stability [1]	pH of aqueous solution [2]	formation of aggregates on dissolution in water [3]	solubility ([4]; room temperature, water, read-out: solubility) [mg/mL]	solubility [4]	solubility ([4]; pH 2.35) [mg/mL]	solubility ([4]; pH 5.72, water) [mg/mL]
COc1cccc2c1C(=O)c1c(O)c3c(c(O)c1C2=O)CC(O)(C(=O)CO)CC3OC1CC(NC(=O)[C@H](CC(C)C)NC(=O)C(CO)NC(=O)[C@H](CCC(N)=O)NC(=O)C(NC(=O)C(CO)NC(=O)C(C)NC(=O)C2CC(O)CN2C(=O)CCCC(=O)[O-])C2CCCCC2)C(O)C(C)O1.[Na+] (stereo partly drawn) [Compound 5, [N-Glutaryl-(4-trans-L-Hyp)]-Ala-Ser-Chg-Gln-Ser-Leu-Dox Sodium salt] (Glutaryl-[ξHyp][ξA][ξS][ξChg]Q[ξS]L-X2)	more thermally stable than the corresponding free acid compound	greater than 5.0	dissolves in water without forming aggregates	> 277			
COc1cccc2c1C(=O)c1c(O)c3c(c(O)c1C2=O)C[C@@](O)(C(=O)CO)C[C@@H]3OC1CC(NC(=O)[C@H](CC(C)C)NC(=O)[C@H](CO)NC(=O)[C@H](CCC(N)=O)NC(=O)[C@@H](NC(=O)[C@H](CO)NC(=O)[C@H](C)NC(=O)[C@@H]2C[C@@H](O)CN2C(=O)CCCC(=O)O)C2CCCCC2)C(O)C(C)O1 (stereo partly drawn) [Compound 4, [N-Glutaryl-(4-trans-L-Hyp)]-Ala-Ser-Chg-Gln-Ser-Leu-Dox] (Glutaryl-[Hyp]AS[Chg]QSL-X1)					13.8 mg/mL of water	3.98 (≈ 2850 µM)	> 156
